Here are results for 1 substance from article PMC3297588.

For this test, the target named is holo-hemoglobin (UniProt P01966). As to the kind of experiment: SPR. (In general: SPR reads the build-up and loss of mass on a sensor chip optically.)
Chain of UniProt P01966 (P01966 whole entry, chain 1 of 2): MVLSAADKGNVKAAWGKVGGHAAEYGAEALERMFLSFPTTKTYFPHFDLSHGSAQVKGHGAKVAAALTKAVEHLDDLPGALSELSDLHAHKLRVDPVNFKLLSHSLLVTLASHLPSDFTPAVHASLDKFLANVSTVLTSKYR
Chain of UniProt P01966 (P02070 whole entry, chain 2 of 2, further chain): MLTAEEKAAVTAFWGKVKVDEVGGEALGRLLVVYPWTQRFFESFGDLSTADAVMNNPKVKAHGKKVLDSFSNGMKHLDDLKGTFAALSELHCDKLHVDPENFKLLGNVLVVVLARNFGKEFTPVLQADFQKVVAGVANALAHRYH

In general, Kd refers to a measure of binding affinity in units of concentration. A high value points to weaker binding. In turn, “IsdX1 (amino acids 26-146), wild-type, apo form (domain or fragment)” yielded a Kd of 15 nM. In other words, the double-digit nanomolar range.
